Test results: paper PMC10397247
Read-outs that look alike come from different tables or passages of the source.

How the values were obtained:
[1] = target: T1, 4H1878-AA; experiment: two-hybrid library CCmax;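 note: natural log of median RNA to DNA barcode read ratio; higher means stronger binding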
T1 chain: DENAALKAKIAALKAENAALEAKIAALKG

[2] = target: T2, 4H235-AA; experiment: two-hybrid library CCmax; conditions: mean of both orientations;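 note: natural log of median RNA to DNA barcode read ratio; higher means stronger binding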
T2 chain: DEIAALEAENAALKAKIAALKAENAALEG

[3] = target: T3, 4H249-AA; experiment: two-hybrid library CCmax; conditions: mean of both orientations;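 note: natural log of median RNA to DNA barcode read ratio; higher means stronger binding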
T3 chain: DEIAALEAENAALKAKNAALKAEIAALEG

[4] = target: T4, 4H2580-AA; experiment: two-hybrid library CCmax; conditions: mean of both orientations;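 note: natural log of median RNA to DNA barcode read ratio; higher means stronger binding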
T4 chain: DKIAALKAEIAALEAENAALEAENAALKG

[5] = target: T5, 4H2604-AA; experiment: two-hybrid library CCmax; conditions: mean of both orientations;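 note: natural log of median RNA to DNA barcode read ratio; higher means stronger binding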
T5 chain: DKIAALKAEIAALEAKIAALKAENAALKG

[6] = target: T6, 4H2621-AA; experiment: two-hybrid library CCmax; conditions: mean of both orientations;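 note: natural log of median RNA to DNA barcode read ratio; higher means stronger binding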
T6 chain: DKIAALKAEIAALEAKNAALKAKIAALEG

[7] = target: T7, 4H2760-AA; experiment: two-hybrid library CCmax; conditions: mean of both orientations
T7 chain: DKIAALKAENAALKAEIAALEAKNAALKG

[8] = target: T8, 4H2774-AA; experiment: two-hybrid library CCmax; conditions: mean of both orientations
T8 chain: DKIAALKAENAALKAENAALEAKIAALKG

[9] = target: T9, 4H2903-AA; experiment: two-hybrid library CCmax; conditions: mean of both orientations
T9 chain: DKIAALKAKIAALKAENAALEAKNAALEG

[10] = target: T10, 4H2947-AA; experiment: two-hybrid library CCmax; conditions: mean of both orientations
T10 chain: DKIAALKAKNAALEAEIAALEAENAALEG

[11] = target: T11, 4H2961-AA; experiment: two-hybrid library CCmax; conditions: mean of both orientations
T11 chain: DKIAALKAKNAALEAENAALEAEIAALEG

[12] = target: T12, 4H3049-AA; experiment: two-hybrid library CCmax; conditions: mean of both orientations
T12 chain: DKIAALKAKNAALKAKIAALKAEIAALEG

[13] = target: T13, 4H3094-AA; experiment: two-hybrid library CCmax; conditions: mean of both orientations
T13 chain: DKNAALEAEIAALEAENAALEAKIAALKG

[14] = target: T14, 4H324-AA; experiment: two-hybrid library CCmax; conditions: mean of both orientations
T14 chain: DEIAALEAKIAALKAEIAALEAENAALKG

[15] = target: T15, 4H341-AA; experiment: two-hybrid library CCmax; conditions: mean of both orientations
T15 chain: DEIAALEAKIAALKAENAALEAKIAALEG

[16] = target: T16, 4H3449-AA; experiment: two-hybrid library CCmax; conditions: mean of both orientations
T16 chain: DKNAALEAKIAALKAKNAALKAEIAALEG

[17] = target: T17, 4H3619-AA; experiment: two-hybrid library CCmax; conditions: mean of both orientations
T17 chain: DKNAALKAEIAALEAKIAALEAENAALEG

[18] = target: T18, 4H3629-AA; experiment: two-hybrid library CCmax; conditions: mean of both orientations
T18 chain: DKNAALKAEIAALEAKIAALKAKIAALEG

[19] = target: T19, 4H3777-AA; experiment: two-hybrid library CCmax; conditions: mean of both orientations
T19 chain: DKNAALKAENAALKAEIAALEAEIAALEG

[20] = target: T20, 4H380-AA; experiment: two-hybrid library CCmax; conditions: mean of both orientations
T20 chain: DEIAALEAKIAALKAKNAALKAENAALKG

[21] = target: T21, 4H3915-AA; experiment: two-hybrid library CCmax; conditions: mean of both orientations
T21 chain: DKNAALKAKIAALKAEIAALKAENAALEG

[22] = target: T22, 4H3974-AA; experiment: two-hybrid library CCmax; conditions: mean of both orientations
T22 chain: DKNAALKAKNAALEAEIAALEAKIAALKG

[23] = target: T23, 4H432-AA; experiment: two-hybrid library CCmax; conditions: mean of both orientations
T23 chain: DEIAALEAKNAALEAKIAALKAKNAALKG

[24] = target: T24, 4H446-AA; experiment: two-hybrid library CCmax; conditions: mean of both orientations
T24 chain: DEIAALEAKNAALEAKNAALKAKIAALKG

[25] = target: T25, 4H63-AA; experiment: two-hybrid library CCmax
T25 chain: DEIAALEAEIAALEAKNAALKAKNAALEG

[26] = target: T26, 4H4038-bN; experiment: two-hybrid library CCNG1
T26 chain: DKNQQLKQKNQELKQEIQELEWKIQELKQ

[27] = target: T27, P5SC1; experiment: two-hybrid library CC1; conditions: mean of both orientations
T27 chain: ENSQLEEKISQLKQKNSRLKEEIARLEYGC

[28] = target: T28, P5SC2; experiment: two-hybrid library CC1; conditions: mean of both orientations
T28 chain: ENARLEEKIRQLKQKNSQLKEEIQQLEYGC

[29] = target: T29, P5; experiment: two-hybrid library CC1
T29 chain: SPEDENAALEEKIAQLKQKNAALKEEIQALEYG

[30] = target: T30, P5mS; experiment: two-hybrid library CC1; conditions: mean of both orientations
T30 chain: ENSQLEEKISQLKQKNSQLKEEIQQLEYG

[31] = target: T31, P6SC1; experiment: two-hybrid library CC1; conditions: mean of both orientations
T31 chain: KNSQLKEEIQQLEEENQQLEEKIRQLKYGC

[32] = target: T32, P6SC2; experiment: two-hybrid library CC1; conditions: mean of both orientations
T32 chain: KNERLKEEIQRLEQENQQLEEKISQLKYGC

[33] = target: T33, P6; experiment: two-hybrid library CC1; conditions: mean of both orientations
T33 chain: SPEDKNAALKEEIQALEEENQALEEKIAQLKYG

[34] = target: T34, P6mS; experiment: two-hybrid library CC1; conditions: mean of both orientations
T34 chain: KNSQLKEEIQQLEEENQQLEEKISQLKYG

[35] = target: T35, P7; experiment: two-hybrid library CC1; conditions: mean of both orientations
T35 chain: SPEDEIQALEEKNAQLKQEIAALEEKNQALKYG

[36] = target: T36, P7mS; experiment: two-hybrid library CC1; conditions: mean of both orientations
T36 chain: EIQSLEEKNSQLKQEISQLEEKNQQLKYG

[37] = target: T37, P8; experiment: two-hybrid library CC1; conditions: mean of both orientations
T37 chain: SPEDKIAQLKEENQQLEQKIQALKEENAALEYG

[38] = target: T38, P8mS; experiment: two-hybrid library CC1; conditions: mean of both orientations
T38 chain: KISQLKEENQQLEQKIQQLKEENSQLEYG

[39] = target: T39, P9; experiment: two-hybrid library CC1; conditions: mean of both orientations
T39 chain: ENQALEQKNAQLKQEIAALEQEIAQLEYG

[40] = target: T40, 4H3907-bN; experiment: two-hybrid library CCNG1
T40 chain: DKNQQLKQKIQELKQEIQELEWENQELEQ

[41] = target: T41, 4H3961-bN; experiment: two-hybrid library CCNG1
T41 chain: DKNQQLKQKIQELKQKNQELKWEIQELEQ

[42] = target: T42, 4H470-bN; experiment: two-hybrid library CCNG1
T42 chain: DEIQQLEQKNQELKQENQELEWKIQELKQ

[43] = target: T43, 4H1913-AA; experiment: two-hybrid library CCmax
T43 chain: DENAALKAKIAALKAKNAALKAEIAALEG

[44] = target: T44, 4H2699-AA; experiment: two-hybrid library CCmax; conditions: mean of both orientations
T44 chain: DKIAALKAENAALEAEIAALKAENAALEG

[45] = target: T45, 4H2728-AA; experiment: two-hybrid library CCmax; conditions: mean of both orientations
T45 chain: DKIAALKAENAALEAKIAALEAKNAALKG

[46] = target: T46, 4H3129-AA; experiment: two-hybrid library CCmax
T46 chain: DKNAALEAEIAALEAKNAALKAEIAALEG

[47] = target: T47, 4H3414-AA; experiment: two-hybrid library CCmax; conditions: mean of both orientations
T47 chain: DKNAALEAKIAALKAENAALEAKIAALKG

[48] = target: T48, 4H3595-AA; experiment: two-hybrid library CCmax; conditions: mean of both orientations
T48 chain: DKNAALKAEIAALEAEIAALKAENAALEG

[49] = target: T49, 4H3782-AA; experiment: two-hybrid library CCmax; conditions: mean of both orientations
T49 chain: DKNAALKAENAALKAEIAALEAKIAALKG

[50] = target: T50, 4H3939-AA; experiment: two-hybrid library CCmax; conditions: mean of both orientations
T50 chain: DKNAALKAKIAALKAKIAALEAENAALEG

[51] = target: T51, 4H3969-AA; experiment: two-hybrid library CCmax; conditions: mean of both orientations
T51 chain: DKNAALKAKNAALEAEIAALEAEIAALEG

[52] = target: T52, 4H464-AA; experiment: two-hybrid library CCmax; conditions: mean of both orientations
T52 chain: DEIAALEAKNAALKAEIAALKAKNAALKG

[53] = target: T53, 4H483-AA; experiment: two-hybrid library CCmax; conditions: mean of both orientations
T53 chain: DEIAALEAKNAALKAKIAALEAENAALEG

[54] = target: T54, P5A-bH; experiment: two-hybrid library CCNG1
T54 chain: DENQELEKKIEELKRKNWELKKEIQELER

[55] = target: T55, P6A-bH; experiment: two-hybrid library CCNG1
T55 chain: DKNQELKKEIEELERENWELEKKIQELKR

[56] = target: T56, P7A-bH; experiment: two-hybrid library CCNG1
T56 chain: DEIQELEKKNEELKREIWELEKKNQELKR

[57] = target: T57, P8A-bH; experiment: two-hybrid library CCNG1
T57 chain: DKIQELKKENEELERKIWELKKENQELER

[58] = target: T58, P9A-bH; experiment: two-hybrid library CCNG1
T58 chain: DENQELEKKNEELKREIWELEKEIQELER

[59] = target: T59, P4A-bH; experiment: two-hybrid library CCNG1
T59 chain: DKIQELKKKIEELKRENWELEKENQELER

[60] = target: T60, 4H491-bN; experiment: two-hybrid library CCNG1
T60 chain: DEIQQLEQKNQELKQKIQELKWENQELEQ

[61] = target: T61, P4bH1; experiment: two-hybrid library CCNG1
T61 chain: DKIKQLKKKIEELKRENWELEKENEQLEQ

DENAALKAKIAALKAENAALEAKIAALKG [4H1878-AA]
interaction score [1]: 0.691 | interaction score [2]: 0.899 | interaction score [3]: 1.34 | interaction score [4]: -0.744 | interaction score [5]: -0.964 | interaction score [6]: 2.05 | interaction score [7]: 1.48 | interaction score [8]: -1.27 | interaction score [9]: -0.956 | interaction score [10]: -0.843 | interaction score [11]: -1.54 | interaction score [12]: -0.448 | interaction score [13]: 1.41 | interaction score [14]: 0.44 | interaction score [15]: 0.00503 | interaction score [16]: 1.63 | interaction score [17]: -0.661 | interaction score [18]: 1.63 | interaction score [19]: -1.54 | interaction score [20]: -0.854 | interaction score [21]: -1.7 | interaction score [22]: -1.23 | interaction score [23]: -0.557 | interaction score [24]: -1.08 | interaction score ([25]; mean of both orientations): 1.51

DKNQQLKQKNQELKQEIQELEWKIQELKQ [4H4038-bN]
interaction score [26]: -0.153

SPEDENAALEEKIAQLKQKNAALKEEIQALEYG [P5]
interaction score [27]: -2.93 | interaction score [28]: -2.84 | interaction score [29]: -2.89 | interaction score [30]: -2.94 | interaction score [31]: 0.186 | interaction score [32]: 0.252 | interaction score [33]: 0.207 | interaction score [34]: 0.1 | interaction score [35]: -2.59 | interaction score [36]: -2.8 | interaction score [37]: -1.39 | interaction score [38]: -2.62 | interaction score [39]: -2.12

DKNQQLKQKIQELKQEIQELEWENQELEQ [4H3907-bN]
interaction score [40]: -1.04 | interaction score [41]: -1.64 | interaction score [26]: -2.02 | interaction score [42]: -1.7

DENAALKAKIAALKAKNAALKAEIAALEG [4H1913-AA]
interaction score [43]: -1.12 | interaction score [3]: -1.83 | interaction score [4]: 0.453 | interaction score [6]: -0.536 | interaction score [44]: -0.293 | interaction score [45]: 0.365 | interaction score [8]: -0.0687 | interaction score [9]: -1.62 | interaction score [11]: -1.61 | interaction score [12]: -1.85 | interaction score [46]: -0.895 | interaction score [15]: 0.862 | interaction score [47]: 1.8 | interaction score [48]: -1.29 | interaction score [18]: -1.21 | interaction score [49]: -1.16 | interaction score [20]: -2.69 | interaction score [50]: -1.9 | interaction score [51]: -0.832 | interaction score [24]: -1.42 | interaction score [52]: -0.535 | interaction score [53]: -1.02 | interaction score [25]: -0.87

DENQELEKKIEELKRKNWELKKEIQELER [P5A-bH]
interaction score [54]: -1.13 | interaction score [55]: 1.49 | interaction score [56]: -0.756 | interaction score [57]: 1.32 | interaction score [58]: -0.708

DKIQELKKKIEELKRENWELEKENQELER [P4A-bH]
interaction score [59]: -1.38 | interaction score [54]: -0.285 | interaction score [55]: -2.06 | interaction score [56]: -0.412 | interaction score [57]: 0.0606 | interaction score [58]: -0.144

DEIQQLEQKNQELKQKIQELKWENQELEQ [4H491-bN]
interaction score [60]: -0.336 | interaction score [61]: -0.336
